In the data set the test system is C[S+](CC[C@H](N)C(=O)O)C[C@H]1O[C@@H](n2cnc3c(N)ncnc32)[C@H](O)[C@@H]1O. The experiment in a line: purified protein. Particulars: catalytic SET domain; varied: cofactor.

The source of these data is PMC10718286.

By kcat is commonly meant the number of substrate molecules converted per active site and unit of time at saturation. Usually kcat/Km stands for the turnover number divided by the Michaelis constant. As for “SETDB1 (full-length, SETDB1-FL) (Homo sapiens)”, the kcat is 8.06e-05 s⁻¹ and the kcat/Km was 88.9 M⁻¹ s⁻¹.
